Reference: US20050064518A1 (PURDUE PHARMA L P, published 2005)

T1: O772P 3-repeat recombinant protein (human)
T1 construct: Repeats are residues 14-452 of the entry
T1 chain: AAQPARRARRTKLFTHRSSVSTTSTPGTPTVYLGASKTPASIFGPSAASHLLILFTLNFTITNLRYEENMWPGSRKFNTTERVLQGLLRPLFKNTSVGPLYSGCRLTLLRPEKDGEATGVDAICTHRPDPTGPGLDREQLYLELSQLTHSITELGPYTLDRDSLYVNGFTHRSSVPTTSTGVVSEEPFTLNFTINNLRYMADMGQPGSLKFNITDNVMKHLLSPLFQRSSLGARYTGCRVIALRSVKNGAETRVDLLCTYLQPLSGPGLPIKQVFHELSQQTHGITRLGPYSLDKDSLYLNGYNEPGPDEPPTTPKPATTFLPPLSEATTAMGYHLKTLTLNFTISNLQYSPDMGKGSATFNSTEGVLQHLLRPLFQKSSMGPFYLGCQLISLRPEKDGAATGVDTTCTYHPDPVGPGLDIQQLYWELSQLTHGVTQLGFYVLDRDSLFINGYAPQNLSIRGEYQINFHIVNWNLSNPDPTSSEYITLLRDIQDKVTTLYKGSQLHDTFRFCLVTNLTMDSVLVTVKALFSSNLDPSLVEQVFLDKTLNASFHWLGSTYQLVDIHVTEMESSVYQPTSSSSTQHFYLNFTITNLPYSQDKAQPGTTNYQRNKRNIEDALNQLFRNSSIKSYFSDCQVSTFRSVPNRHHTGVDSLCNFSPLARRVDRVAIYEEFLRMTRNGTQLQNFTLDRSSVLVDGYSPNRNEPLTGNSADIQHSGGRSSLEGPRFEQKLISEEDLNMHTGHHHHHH

T2: O772P 3-repeat TM on transfected NIH/3T3 cells (human)
T2 construct: also called NIH/3T3 O772P 3-repeat
T2 chain: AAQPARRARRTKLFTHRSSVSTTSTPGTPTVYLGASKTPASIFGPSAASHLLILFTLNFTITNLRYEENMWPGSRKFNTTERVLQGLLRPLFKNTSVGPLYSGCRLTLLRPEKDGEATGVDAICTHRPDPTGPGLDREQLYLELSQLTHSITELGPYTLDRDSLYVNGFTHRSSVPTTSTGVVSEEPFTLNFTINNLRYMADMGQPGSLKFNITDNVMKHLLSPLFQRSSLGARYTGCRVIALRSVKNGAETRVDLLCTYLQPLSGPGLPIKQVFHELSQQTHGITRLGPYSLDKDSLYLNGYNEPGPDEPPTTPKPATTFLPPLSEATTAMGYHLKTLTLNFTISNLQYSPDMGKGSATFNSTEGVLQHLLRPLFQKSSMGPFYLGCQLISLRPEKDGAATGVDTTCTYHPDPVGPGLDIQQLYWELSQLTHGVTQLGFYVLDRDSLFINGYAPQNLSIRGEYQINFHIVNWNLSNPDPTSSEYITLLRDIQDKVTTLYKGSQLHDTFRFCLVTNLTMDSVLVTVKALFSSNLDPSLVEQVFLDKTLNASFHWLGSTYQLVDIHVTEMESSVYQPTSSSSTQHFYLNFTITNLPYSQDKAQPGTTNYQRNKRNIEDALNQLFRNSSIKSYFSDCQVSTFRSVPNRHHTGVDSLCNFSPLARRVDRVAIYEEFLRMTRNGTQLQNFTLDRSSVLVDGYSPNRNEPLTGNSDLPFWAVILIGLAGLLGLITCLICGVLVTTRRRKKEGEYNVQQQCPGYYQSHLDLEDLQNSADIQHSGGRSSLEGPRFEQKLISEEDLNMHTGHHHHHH


Columns and labels:
[1] = biological target: T1, O772P 3-repeat recombinant protein; experiment: BIAcore SPR, O772P 3-repeat immobilized, mAb injected
Description: A […] BIAcore biosensor chip was docked into the BIAcore X instrument and activated with 55 μl of 1:1 NHS/EDC at room temperature. O772P 3-repeat region protein and BSA at 10 μg/ml in 0.05 M acetate buffer, pH 4.5, were immobilized onto the flow cell (FC) 1 and FC2 of the activated chip, respectively, at a flow rate of 5 μl/min to achieve a resonance response of 1000-2000 RU. The chip was then blocked by injection of 55 μl of ethanolamine-HCl, pH 8.5, and followed with washing 5 times with 50 mM NaOH-1 M NaCl. To measure the binding of anti-0722P mAbs to the O772P 3-repeat region immobilized to the chip, 30 μl of anti-0722P mAbs at varying concentrations in BIAcore running buffer (HBS-EP, Cat. #1001-080, BIAcore, Piscataway, N.J.) were injected over the sensor surface at a flow rate of 5 μl/min. Following completion of the injection phase, dissociation was monitored in BIAcore running buffer at the same flow rate for 360 seconds. The surface was regenerated between injections using 30 μl of 50 mM NaOH-1 M NaCl. Individual sensorgrams were analyzed using BIAevaluation.

[2] = biological target: T2, O772P 3-repeat TM on transfected …; experiment: flow cytometry, NIH/3T3 cells expressing O772P 3-repeat TM; Ab 0.5 µg/ml
Description: Cells (OVCAR-3 (ATCC Accession No. HTB-161), SK-OV3 (ATCC Accession No. HTB-77), NIH/3T3 (ATCC Accession No. CRL-1658), and NIH/3T3 cells transfected with a sequence that expresses O772P 3-repeat protein (SEQ ID NO:2)) were removed from culture plates by digestion with trypsin (0.25%). The cells were counted and viability was assessed by trypan blue (0.2%) exclusion. Cells were then centrifuged (500×g, 5 min) and resuspended in FACS buffer (1×DPBS containing 1% BSA and 0.1% sodium azide) to a concentration between 5-10×10⁷ cells/ml. Cells were then distributed at a volume of 100 μL/well into 96-well round bottom plates and centrifuged at 500×g for 3 minutes. Antibody supernatant was removed by aspiration, and 50 μl hybridoma supernatants diluted to 1 μg/ml and 0.5 μg/μl in FACS buffer and was added to each well containing cells. Murine IgG1 kappa (Sigma, St. Louis, Mo.) (either 2.0, 1.0, 0.5, 0.1 μg/μl) was included as a negative control and OC125 and M11 (DAKO Corp, Carpinteria, Calif.) were included as positive controls. Plates were incubated for 30 minutes at 4° C. with rocking. Cells were subsequently washed 2 times with FACS buffer (200 μl/well), with centrifugation and buffer aspiration following each wash. Goat anti-mouse IgG (Fc)-biotin (Sigma, St. Louis, Mo.) was diluted 1:1000 in FACS buffer and 50 μl was added to each well containing cells. Plates were incubated 30 minutes at 4° C. with rocking. Cells were then washed with FACS buffer as above. Streptavidin-Alexa-Four 488 (Molecular Probes, Eugene, Oreg.) was diluted 1:1000 into FACS buffer and 50 μl was added to each well containing cells. Plates were then incubated 30 minutes at 4° C. with […]. Cells were then washed with FACS buffer, as above. Cells were then resuspended in 1 ml of FACS buffer and transferred to Falcon 2052 tubes and analyzed on a Becton-Dickinson Immunocytometry Systems FACSCalibur flow cytometer (San Jose, Calif.).

| Binder | Kd [1] [nM] | % positive cells [2] [%] |
| --- | --- | --- |
| monoclonal antibody 368.1 (antibody, V domains shown, Murine hybridoma antibody) VH: EVQLQQSGPELVRTGASVKISCKASGYSFTGFYMHWVKQSLGKSLEWIGYVSCYTGATTYTQKFKGKATFTVDTSSSTAYMQLNSLTSEDSAVYYCAREGDYYSMDFWGQGTSVTVSS VL: DVVMTQTPLSLPVSLGDQASISCRSSQSLERTNGNTYLHWYLQKPGQSPKLLIYKVSSRFSGVPDRFSGSGSGTDFTLKISRVEAEDLGIYFCSQTTHGPPTCGGGTKLEIK | 0.7 | 75 |
| monoclonal antibody 501.1 (antibody, V domains shown, Murine hybridoma antibody) VH: QIQLVQSGPELKKPGETVQISCKASGYIFTDYGMNWVKQAPGKGLKWMGCINTYTGETIYSDDFRGRFAISLETSASTAFIQINNLKNEDAATYFCARGNYRDAIDYWGQGTSVTVSS VL: DIKMTQSPSSIYASLGERVTITCKASQDIKSYLSWYQQKPWKSPKTLIYYATTLADGVPSRFSGSGSGQDYSLIINSLESDDIATYFCLHHDESPFTFGSGTKLEI | 70 | 85 |
| monoclonal antibody 117.1 (antibody, V domains shown, Murine hybridoma antibody) VH: QVTLKESGPGILQPSQTLSLTCSFSGFSLSTPGMGVGWIRQPSGKGLEWLAHIWWDDFKRDNPALKSRLTISKDTSSSQVFLKIASVDTADTATYYCVRVDGNFLSWYFDVWGAGTTVTVSS VL: DAVMTQTPLSLPVSLGDQASISCRSSQSLVHSNGNTYLHWYLQKPGQSPKLLIYKVSNRFSGVPDRFSGSGSGTDFTLRISRVEAEDLGVYFCSQSRYVPWTFGGGTKLEIK | 12 | 63 |
